IntAct's records for PubMed 19204291

B1: Programmed cell death protein 4 (Homo sapiens), Q53EL6 (parent)
chain: MDVENEQILNVNPADPDNLSDSLFSGDEENAGTEEIKNEINGNWISASSINEARINAKAKRRLRKNSSRDSGRGDSVSDSGSDALRSGLTVPTSPKGRLLDRRSRSGKGRGLPKKGGAGGKGVWGTPGQVYDVEEVDVKDPNYDDDQENCVYETVVLPLDERAFEKTLTPIIQEYFEHGDTNEVAEMLRDLNLGEMKSGVPVLAVSLALEGKASHREMTSKLLSDLCGTVMSTTDVEKSFDKLLKDLPELALDTPRAPQLVGQFIARAVGDGILCNTYIDSYKGTVDCVQARAALDKATVLLSMSKGGKRKDSVWGSGGGQQSVNHLVKEIDMLLKEYLLSGDISEAEHCLKELEVPHFHHELVYEAIIMVLESTGESTFKMILDLLKSLWKSSTITVDQMKRGYERIYNEIPDINLDVPHSYSVLERFVEECFQAGIISKQLRDLCPSRGRKRFVSEGDGGRLKPESY

Variants of: B1
Conditions: with if4a1_human EIF4A1, P60842
Chain of if4a1_human EIF4A1, P60842 (P60842 whole entry): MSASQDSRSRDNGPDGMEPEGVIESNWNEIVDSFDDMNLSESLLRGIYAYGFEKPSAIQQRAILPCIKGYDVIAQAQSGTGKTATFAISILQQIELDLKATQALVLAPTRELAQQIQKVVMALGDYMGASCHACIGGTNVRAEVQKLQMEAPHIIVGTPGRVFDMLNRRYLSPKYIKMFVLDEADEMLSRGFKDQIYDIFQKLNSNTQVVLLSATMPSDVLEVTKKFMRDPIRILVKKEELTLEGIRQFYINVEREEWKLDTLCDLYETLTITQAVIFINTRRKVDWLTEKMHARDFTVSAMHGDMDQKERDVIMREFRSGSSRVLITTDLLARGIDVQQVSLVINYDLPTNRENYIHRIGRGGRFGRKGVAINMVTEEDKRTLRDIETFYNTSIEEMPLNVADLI

Row | Variant | effect of a mutation on the interaction
1 | MDVENEQILNVNPADPDNLSDSLFSGDEENAGTEEIKNEINGNWISASSINEARINAKAKRRLRKNSSRDSGRGDSVSDSGSDALRSGLTVPTSPKGRLLDRRSRSGKGRGLPKKGGAGGKGVWGTPGQVYDVEEVDVKDPNYDDDQENCVYETVVLPLDERAFEKTLTPIIQEYFEHGDTNEVAEMLRDLNLGEMKSGVPVLAVSLALEGKASHREMTSKLLSDLCGTVMSTTDVEKSFDKLLKDLPALALATPRAPQLVGQFIARAVGDGILCNTYIDSYKGTVDCVQARAALDKATVLLSMSKGGKRKDSVWGSGGGQQSVNHLVKEIDMLLKEYLLSGDISEAEHCLKELEVPHFHHELVYEAIIMVLESTGESTFKMILDLLKSLWKSSTITVDQMKRGYERIYNEIPAINLAVPHSYSVLERFVEECFQAGIISKQLRDLCPSRGRKRFVSEGDGGRLKPESY [E249A;D253A;D414A;D418A] | disrupting interaction strength
